# US20030135880A1, “Compositions and methods for halogenation reactions” (priority 2002, published 2003)
# Where two headings read alike, the source gives them in different places.
# T1: PrnC (Pseudomonas fluorescens, UniProt P95482)
# T1 construct: made in house; host or cells: P. fluorescens (pPEH/prnC/134Δprn), plasmid pPEH-PrnC with tac promoter
# T1 sequence (P95482 whole entry, looked up): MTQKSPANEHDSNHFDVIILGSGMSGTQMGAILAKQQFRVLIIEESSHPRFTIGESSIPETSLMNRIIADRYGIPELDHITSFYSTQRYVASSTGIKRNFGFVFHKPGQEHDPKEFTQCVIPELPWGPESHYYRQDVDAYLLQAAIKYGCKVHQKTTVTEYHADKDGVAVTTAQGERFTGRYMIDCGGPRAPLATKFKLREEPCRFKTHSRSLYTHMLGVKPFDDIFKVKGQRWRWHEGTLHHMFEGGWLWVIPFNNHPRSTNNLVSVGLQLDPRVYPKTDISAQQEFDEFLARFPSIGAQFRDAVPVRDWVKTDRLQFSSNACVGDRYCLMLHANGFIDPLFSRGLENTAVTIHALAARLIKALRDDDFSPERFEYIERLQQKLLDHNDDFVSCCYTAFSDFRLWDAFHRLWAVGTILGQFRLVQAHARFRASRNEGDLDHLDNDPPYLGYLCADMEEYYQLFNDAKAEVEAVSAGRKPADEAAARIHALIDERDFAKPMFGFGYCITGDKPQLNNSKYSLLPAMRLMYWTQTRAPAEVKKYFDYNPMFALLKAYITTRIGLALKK
# B1: FNR: Spinach ferredoxin NADP reductase (protein, UniProt P00455 56-369, looked up)
# Ferredoxin--NADP reductase, …: QIASDVEAPPPAPAKVEKHSKKMEEGITVNKFKPKTPYVGRCLLNTKITGDDAPGETWHMVFSHEGEIPYREGQSVGVIPDGEDKNGKPHKLRLYSIASSALGDFGDAKSVSLCVKRLIYTNDAGETIKGVCSNFLCDLKPGAEVKLTGPVGKEMLMPKDPNATIIMLGTGTGIAPFRSFLWKMFFEKHDDYKFNGLAWLFLGVPTSSSLLYKEEFEKMKEKAPDNFRLDFAVSREQTNEKGEKMYIQTRMAQYAVELWEMLKKDNTYFYMCGLKGMEKGIDDIMVSLAAAEGIDWIEYKRQLKKAEQWNVEVY
# B2: NAD(P)H:FMN reductase: Photobacterium fischeri NAD(P)H:FMN reductase purchased from Roche (protein, listed as Vibrio fischeri)
# chain: MPINCKVKSIEPLACNTFRILLHPEQPVAFKAGQYLTVVMGEKDKRPFSIASSPCRHEGEIELHIGAAEHNAYAGEVVESMKSALETGGDILIDAPHGEAWIREDSDRSMLLIAGGTGFSYVRSILDHCISQQIQKPIYLYWGGRDECQLYAKAELESIAQAHSHITFVPVVEKSEGWTGKTGNVLEAVKADFNSLADMDIYIAGRFEMAGAAREQFTTEKQAKKEQLFGDAFAFI
# B3: NADPH-cyt-P450 reductase: Rabbit liver NADPH-cyt-P450 reductase purchased from Sigma Chemical Co. (protein, listed as Oryctolagus cuniculus)
# chain: LINMADSHGDTGATMPEAAAQEASVFSMTDVVLFSLIVGLITYWFLFRKKKEEVPEFTKIQAPTSSSVKESSFVEKMKKTGRNIVVFYGSQTGTAEEFANRLSKDAHRYGMRGMAADPEEYDLADLSSLPEINNALAVFCMATYGEGDPTDNAQDFYDWLQETDVDLSGVKYAVFGLGNKTYEHFNAMGKYVDQRLEQLGAQRIFELGMGDDDANLEEDFITWREQFWPAVCEHFGVEATGEESSIRQYELVLHTDIDVAKVYQGEMGRLKSYENQKPPFDAKNPFLATVTTNRKLNQGTERHLMHLELDISDSKIRYESGDHVAVYPANDSALVNQLGEILGADLDVVMSLNNLDEESNKKHPFPCPTSYRTALTYYLDITNPPRTNVLYELAQYAADPAEQEQLRKMASSSGEGKELYLSWVVEARRHILAILQDYPSLRPPIDHLCELLPRLQARYYSIASSSKVHPNSVHICAVAVEYETKAGRLNKGVATSWLRAKEPAGENGGRALVPMFVRKSQFRLPFKATTPVIMVGPGTGVAPFIGFIQERAWLRQQGKEVGETLLYYGCRRAAEDYLYREELAGFQKDGTLSQLNVAFSREQAQKVYVQHLLRRDKEHLWRLIHEGGAHIYVCGDARNMARDVQNTFYDIVAELGAMEHAQAVDYVKKLMTKGRYSLDVWS
# B4: Fre: E. coli flavin reductase (SEQ ID NO: 19), purified electron transferase (protein, listed as Escherichia coli)
# chain: MTTLSCKVTSVEAITDTVYRVRIVPDAAFSFRAGQYLMVVMDERDKRPFSMASTPDEKGFIELHIGASEINLYAKAVMDRILKDHQIVVDIPHGEAWLRDDEERPMILIAGGTGFSYARSILLTALARNPNRDITIYWGGREEQHLYDLCELEALSLKHPGLQVVPVVEQPEAGWRGRTGTVLTAVLQDHGTLAEHDIYIAGRFEMAKIARDLFCSERNAREDRLFGDAFAFI
# B5: cytochrome b5 reductase: Recombinant soluble domain of rat hepatic cytochrome b5 reductase (protein, listed as Rattus norvegicus)
# chain: MGAQLSTLSRVVLSPVWFVYSLFMKLFQRSSPAITLENPDIKYPLRLIDKEIISHDTRRFRFALPSPQHILGLPIGQHIYLSTRIDGNLVIRPYTPVSSDDDKGLVDLVVKVYFKDTHPKFPAGGKMSQYLENMNIGDTIEFRGPNGLLVYQGKGKFAIRADKKSNPVVRTVKSVGMIAGGTGITPMLQVIRAVLKDPNDHTVCYLLFANQSEKDILLRPELEELRNEHSSRFKLWYTVDKAPDAWDYSQGFVNEEMIRDHLPPPGEETLILMCGPPPMIQFACLPNLERVGHPKERCFTF
# Legend:
# [1] = molecular target: T1, PrnC; assay: In vitro halogenation with PrnC: chlorination of MDA to APRN (Example 3); assay type: biochemical, P. fluorescens; settings: Extract #2 (PrnC depleted of P2) plus 20 microliter electron transferase, NADH, overnight
# Description: Fre, ferrodoxin NADP reductase, ferrodoxin and NADPH FMN-reductase are tested for the ability to activate P. fluorescens PrnC that was depleted of endogenous electron transferase (P2) as described below. PrnC catalyzes chlorination of monodechloroaminopyrrolnitrin (MDA) to yield aminopyrrolnitrin (APRN).
# The following materials are prepared for use in assays described below. Buffer 100 mM Tris/Cl, 1 mM EDTA. pH 7.5. Monodechloroaminopyrrolnitrin (MDA) 74.2 mM is prepared by culture of Pseudomonas fluorescens expressing PrnA and PrnB as described in (Kirner et al,1998) which is herein incorporated by reference in its entirety. The assay mix comprises FAD (5 μM) and MDA (742 μM) in buffer. NADH is dissolved in buffer at a concentration of 6 mg/ml. or NADPH is dissolved in buffer at a concentration of 6 mg/ml. Extract #1 is a crude extract in buffer containing PrnC and the endogenous electron transferase P2 described above in example 1. […]
# The assays described below are run as follows; Extract #2 is mixed with the indicated electron transferase, assay mix and either NADH or NADPH as indicated. The native activity of PrnC prior to removal of the P2 activity is determined by a parallel sample in which extract #1 is mixed with assay mix and NADH. […] Samples are analyzed by PrnC_Iso method described below. The 220 nm absorbance chromatogram is analyzed and integrated. PrnC activity is expressed as 100 times the ratio of the APRN peak area to the sum of the peak areas of APRN and MDA. Assuming equal extinction coefficients at 220 nm the calculated ratio is equivalent to the net % conversion of MDA to APRN by halogenation.
# HPLC Analytical method PrnC_Iso The HPLC instrument used is a Waters Alliance HPLC system with photodiode array detector and is equipped with a 4.6×50 mm column packed with C18-Silica, particle size 3 micrometer. […] Absorbance data are collected from 210 to 400 nm with a resolution of 2.4 nm and a sampling rate of 5/s. […]
# [2] = molecular target: T2, PrnA (Pseudomonas fluorescens, UniProt P95480); assay: Activation of PrnA by electron transferases, 2 h assay (Example 2); assay type: biochemical; design: made in house; host or cells: Pseudomonas fluorescens BL915deltaORF1-4 with plasmid pPEH14 (prnA); settings: 20 microliter PrnA, 50 microliter NADH, 50 microliter electron transferase, room temperature
# Description: The following components are used in examples 1-4 below: PrnA (described for Example 1 above) at 0.36 mg/ml, Assay Mixture containing HEPES (100 mM), glucose-6-phosphate, disodium salt (50 mM), D-Trp (5 mM), NaCl (5 mM). Aspergillus niger catalase (39 U/ml), bovine erythrocyte superoxide dismutase (15 U/ml), Leuconostoc mesenteroides glucose-6-phosphate dehydrogenase (10 U/ml). NADH-(3 mg/ml) NADPH (3 mg/ml).
# Each assay contains the assay mixture, either NADH (for samples containing Fre and the NAD(P)H:FMN reductase) or NADPH (for samples containing FNR or FNR and Fd), PrnA and the indicated electron transferase. Negative control samples are incubated in parallel; these substituted buffer for PrnA. Quantification standards are prepared by diluting 0,1, 2 or 5 microliter of 7-Cl-Trp standard (1 mM) in 100 microliter Assay Mixture, 50 microliter NADH, 20 microliter PrnA and 50 microliter buffer; the tubes were heated to 100 C. prior to addition of PrnA, then heated an additional 2 min. Further processing is in parallel with the enzymatic reactions. All samples are mixed for 2 h at room temperature. Reactions are stopped and samples processed as described above in Example 1, including using the HPLC Analytical method PrnA1 as described in Example 1.
# [3] = molecular target: T2, PrnA; assay type: biochemical; design: made in house; host or cells: Pseudomonas fluorescens BL915deltaORF1-4 with plasmid pPEH14 (prnA); settings: 20 microliter PrnA, 20 microliter electron transferase, 20.5 hours, room temperature, triplicate
# Description: Protein concentration or the preparation is 0.36 mg/ml.
# Either a NADH dependent mixture or a NADPH mixture is used as indicated below. An NADH-dependent assay mixture is prepared by adding 12 mg of NADH to 4.5 ml of above described assay mixture. A NADPH-dependent assay mixture is prepared by adding 3 mg NADPH to 1 ml of the above described assay mixture.
# The reactions 1-7, described below, are set up in polypropylene tubes in triplicate. After mixing PrnA, the indicated assay mixture and electron transferase, samples are vortexed, then mixed by inversion at room temperature. […] The HPLC analysis is by Method Set PrnA1 (described below), the injection volume is 50 microliter, and data are collected for the first 6 minutes.
# Standards are prepared by mixing 5 or 10 microliter 7-Cl-Trp (1 mM) with sufficient 50 mM HEPES, pH 7.5 to bring the final volume to 200 microliter. D-Trp is eluted at ˜2 min and 7-Cl-trp is eluted at 4.3 min, as indicated by the elution of the authentic D-Trp and 7-Cl-Trp. The quantity of 7-Cl-trp is determined by comparison to a standard curve. Reported activities are the net increase in 7-Cl-Trp after addition of the electron transferase.
# A Waters Alliance HPLC system with photodiode array detector is used. The Waters Alliance HPLC is equipped with a 4.6×50 mm column packed with C18-Silica, particle size 3 micrometer. A gradient elution method designated here as PrnA1 is used. Flow rates are 1 ml/min throughout and absorbance data are collected from 210 to 400 nm with a resolution of 1.2 nm and a sampling rate of 1/s. The system as pre-equilibrated with an 85:15 mixture of water:methanol. After injection of the sample the column is developed with a 6 min gradient from the starting conditions to a 40:60 water:methanol mixture. Then from 6.0 to 7.0 min the concentration of methanol is increased to 100% in a linear gradient. The column is washed for 1 min with 100% methanol, then re-equilibrated. D-Trp eluted at ˜2 min and 7-Cl-trp eluted at 4.3 min, as indicated by the elution of authentic D-Trp and 7-Cl-Trp.
# T2 sequence (P95480 whole entry): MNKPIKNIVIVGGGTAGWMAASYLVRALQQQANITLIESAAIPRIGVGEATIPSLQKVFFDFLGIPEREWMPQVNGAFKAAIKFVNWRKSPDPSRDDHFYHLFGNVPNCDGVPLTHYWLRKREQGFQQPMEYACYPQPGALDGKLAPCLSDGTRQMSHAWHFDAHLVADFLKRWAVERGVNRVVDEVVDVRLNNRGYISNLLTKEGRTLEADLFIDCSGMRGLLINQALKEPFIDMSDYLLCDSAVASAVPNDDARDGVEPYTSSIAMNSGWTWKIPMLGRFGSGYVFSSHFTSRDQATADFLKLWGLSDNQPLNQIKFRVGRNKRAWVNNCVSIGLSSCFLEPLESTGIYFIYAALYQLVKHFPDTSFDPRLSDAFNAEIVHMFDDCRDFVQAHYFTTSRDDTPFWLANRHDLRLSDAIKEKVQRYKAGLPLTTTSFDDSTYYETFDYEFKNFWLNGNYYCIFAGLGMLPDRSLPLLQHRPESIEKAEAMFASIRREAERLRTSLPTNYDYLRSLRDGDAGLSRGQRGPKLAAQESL
molecule,measurement,setting,value
B1,"PrnC activity, conversion of MDA to APRN",[1],1.8%
same,Net 7-Cl-Trp produced,[2],4.22 nmol
B2,"PrnC activity, conversion of MDA to APRN",[1],4.0%
same,Net 7-Cl-Trp produced,[2],0.11 nmol
B3,net product formation 7-Cl-Trp,[3]; NADPH mixture,3.35 ± 0.23 nmol
B4,"PrnC activity, conversion of MDA to APRN",[1],51.8%
same,net product formation 7-Cl-Trp,[3]; NADH mixture,21.46 ± 1.02 nmol
same,Net 7-Cl-Trp produced,[2],8.44 nmol
B5,net product formation 7-Cl-Trp,[3]; NADH mixture,0.31 ± 0.11 nmol
